The values below come from article PMC7035355.

The assay addresses FBW7 (UniProt Q969H0). The assay can be described thus: co-immunoprecipitation, immunoblot. As to conditions: reference: wild type Mcl-1; sites S159. (Immunoblotting shows a protein as a band on a membrane.)

On to Mcl-1 (from UniProt Q07820) S159A, for which the “binding against the reference” value is listed as “weaker”.
